# According to publication PMC3129213:
# Legend:
# [1] = biological target: Lactoferrin from human neutrophils (human); assay: SPR
# [2] = biological target: CRD from SRCL (UniProt Q5KU26); assay: radioligand binding
# Chain of UniProt Q5KU26 (Q5KU26 whole entry): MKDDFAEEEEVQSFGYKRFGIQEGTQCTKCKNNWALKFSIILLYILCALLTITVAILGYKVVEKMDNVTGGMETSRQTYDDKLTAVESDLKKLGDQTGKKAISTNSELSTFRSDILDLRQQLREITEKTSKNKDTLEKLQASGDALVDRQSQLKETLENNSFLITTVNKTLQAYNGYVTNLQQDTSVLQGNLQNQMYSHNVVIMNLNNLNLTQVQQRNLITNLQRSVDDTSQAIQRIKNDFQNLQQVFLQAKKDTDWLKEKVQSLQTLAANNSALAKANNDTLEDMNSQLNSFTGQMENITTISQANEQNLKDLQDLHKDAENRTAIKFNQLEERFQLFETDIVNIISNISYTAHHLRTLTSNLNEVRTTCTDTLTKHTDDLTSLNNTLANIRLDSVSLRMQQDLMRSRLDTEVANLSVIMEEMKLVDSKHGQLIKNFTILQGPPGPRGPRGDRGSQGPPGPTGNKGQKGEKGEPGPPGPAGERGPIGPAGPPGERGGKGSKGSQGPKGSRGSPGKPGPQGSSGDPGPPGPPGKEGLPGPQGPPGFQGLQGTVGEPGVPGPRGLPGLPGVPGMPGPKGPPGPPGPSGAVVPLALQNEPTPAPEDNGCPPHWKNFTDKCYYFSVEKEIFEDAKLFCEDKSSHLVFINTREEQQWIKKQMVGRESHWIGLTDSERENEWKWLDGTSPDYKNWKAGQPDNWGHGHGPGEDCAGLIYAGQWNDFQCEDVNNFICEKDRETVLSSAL
Kd [1] [µM],Ki [2] [µM],Substance
4.7,–,CRD from SRCL (from UniProt Q5KU26 1-742) (domain or fragment)
–,6.1,Lactoferrin from human neutrophils (natural protein)
